T1: human ICOS (human, UniProt Q9Y6W8 21-199)
T1 construct: whole, on cells
T1 sequence (looked up): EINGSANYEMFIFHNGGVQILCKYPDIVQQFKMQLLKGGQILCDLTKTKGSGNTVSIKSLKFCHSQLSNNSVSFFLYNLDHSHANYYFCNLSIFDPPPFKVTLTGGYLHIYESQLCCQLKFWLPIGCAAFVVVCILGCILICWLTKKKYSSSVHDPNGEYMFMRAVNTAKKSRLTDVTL

T2: human ICOS, full-length, expressed on transfected Expi293 cells (human, UniProt Q9Y6W8 21-199)
T2 construct: whole, on cells
T2 sequence (looked up): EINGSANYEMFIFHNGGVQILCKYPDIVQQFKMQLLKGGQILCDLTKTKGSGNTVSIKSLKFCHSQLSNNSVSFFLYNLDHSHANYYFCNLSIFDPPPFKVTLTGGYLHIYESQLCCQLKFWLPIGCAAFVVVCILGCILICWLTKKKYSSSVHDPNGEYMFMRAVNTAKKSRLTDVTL

B1: ICOSL IgV with N52H/N57Y/Q100R and H48R/S54P, Fc fusion (Fc fusion)
chain: DTQEKEVRAMVGSDVELSCACPEGSRFDLNDVYVYWQTSESKTVVTYRIPQHSPLEYVDSRYRNRALMSPAGMLRGDFSLRLFNVTPQDEQKFHCLVLSRSLGFQEVLSVEVTLHVAANFSVGGGGSGGGGSEPKSSDKTHTCPPCPAPEAEGAPSVFLFPPKPKDTLMISRTPEVTCVVVDVSHEDPEVKFNWYVDGVEVHNAKTKPREEQYNSTYRVVSVLTVLHQDWLNGKEYKCKVSNKALPAPIEKTISKAKGQPREPQVYTLPPSREEMTKNQVSLTCLVKGFYPSDIAVEWESNGQPENNYKTTPPVLDSDGSFFLYSKLTVDKSRWQQGNVFSCSVMHEALHNHYTQKSLSLSPG
B2: variant ICOSL ECD-Fc fusion, full length N52H/N57Y/Q100R/F172S (Fc fusion, not shown: a dimerising Fc or GST)
chain: DTQEKEVRAMVGSDVELSCACPEGSRFDLNDVYVYWQTSESKTVVTYHIPQHSSLEYVDSRYRNRALMSPAGMLRGDFSLRLFNVTPQDEQKFHCLVLSRSLGFQEVLSVEVTLHVAANFSVPVVSAPHSPSQDELTFTCTSINGYPRPNVYWINKTDNSLLDQALQNDTVSLNMRGLYDVVSVLRIARTPSVNIGCCIENVLLQQNLTVGSQTGNDIGERDKITENPVSTGEKNAAT
B3: variant ICOSL IgV-Fc fusion N52V/N57T/Q100L (Fc fusion)
chain: DTQEKEVRAMVGSDVELSCACPEGSRFDLNDVYVYWQTSESKTVVTYHIPQVSSLETVDSRYRNRALMSPAGMLRGDFSLRLFNVTPQDEQKFHCLVLSLSLGFQEVLSVEVTLHVAANFSVGSGGGGSEPKSSDKTHTCPPCPAPEAEGAPSVFLFPPKPKDTLMISRTPEVTCVVVDVSHEDPEVKFNWYVDGVEVHNAKTKPREEQYNSTYRVVSVLTVLHQDWLNGKEYKCKVSNKALPAPIEKTISKAKGQPREPQVYTLPPSREEMTKNQVSLTCLVKGFYPSDIAVEWESNGQPENNYKTTPPVLDSDGSFFLYSKLTVDKSRWQQGNVFSCSVMHEALHNHYTQKSLSLSPG
B4: variant ICOSL IgV-Fc fusion N57Q/Q100P (Fc fusion)
chain: DTQEKEVRAMVGSDVELSCACPEGSRFDLNDVYVYWQTSESKTVVTYHIPQNSSLEQVDSRYRNRALMSPAGMLRGDFSLRLFNVTPQDEQKFHCLVLSPSLGFQEVLSVEVTLHVAANFSVGSGGGGSEPKSSDKTHTCPPCPAPEAEGAPSVFLFPPKPKDTLMISRTPEVTCVVVDVSHEDPEVKFNWYVDGVEVHNAKTKPREEQYNSTYRVVSVLTVLHQDWLNGKEYKCKVSNKALPAPIEKTISKAKGQPREPQVYTLPPSREEMTKNQVSLTCLVKGFYPSDIAVEWESNGQPENNYKTTPPVLDSDGSFFLYSKLTVDKSRWQQGNVFSCSVMHEALHNHYTQKSLSLSPG
B5: ICOSL ECD Truncation #7 with N52H/N57Y/Q100R/C198R and E90K/E111G, Fc fusion (Fc fusion)
chain: DTQEKEVRAMVGSDVELSCACPEGSRFDLNDVYVYWQTSESKTVVTYHIPQHSSLEYVDSRYRNRALMSPAGMLRGDFSLRLFNVTPQDKQKFHCLVLSRSLGFQEVLSVGVTLHVAANFSVPVVSAPHSPSQDELTFTCTSINGYPRPNVYWINKTDNSLLDQALQNDTVFLNMRGLYDVVSVLRIARTPSVNIGCRIENGGGGSGGGGSEPKSSDKTHTCPPCPAPEAEGAPSVFLFPPKPKDTLMISRTPEVTCVVVDVSHEDPEVKFNWYVDGVEVHNAKTKPREEQYNSTYRVVSVLTVLHQDWLNGKEYKCKVSNKALPAPIEKTISKAKGQPREPQVYTLPPSREEMTKNQVSLTCLVKGFYPSDIAVEWESNGQPENNYKTTPPVLDSDGSFFLYSKLTVDKSRWQQGNVFSCSVMHEALHNHYTQKSLSLSPG
notes: not restated for the C198R set
B6: ICOSL ECD Truncation #7 with N52H/N57Y/Q100R/F172S and F83S, Fc fusion (Fc fusion)
chain: DTQEKEVRAMVGSDVELSCACPEGSRFDLNDVYVYWQTSESKTVVTYHIPQHSSLEYVDSRYRNRALMSPAGMLRGDFSLRLSNVTPQDEQKFHCLVLSRSLGFQEVLSVEVTLHVAANFSVPVVSAPHSPSQDELTFTCTSINGYPRPNVYWINKTDNSLLDQALQNDTVSLNMRGLYDVVSVLRIARTPSVNIGCCIENGGGGSGGGGSEPKSSDKTHTCPPCPAPEAEGAPSVFLFPPKPKDTLMISRTPEVTCVVVDVSHEDPEVKFNWYVDGVEVHNAKTKPREEQYNSTYRVVSVLTVLHQDWLNGKEYKCKVSNKALPAPIEKTISKAKGQPREPQVYTLPPSREEMTKNQVSLTCLVKGFYPSDIAVEWESNGQPENNYKTTPPVLDSDGSFFLYSKLTVDKSRWQQGNVFSCSVMHEALHNHYTQKSLSLSPG
B7: ICOSL ECD Truncation #6 with N52H/N57Y/Q100R/F172S, Fc fusion (Fc fusion)
chain: DTQEKEVRAMVGSDVELSCACPEGSRFDLNDVYVYWQTSESKTVVTYHIPQHSSLEYVDSRYRNRALMSPAGMLRGDFSLRLFNVTPQDEQKFHCLVLSRSLGFQEVLSVEVTLHVAANFSVPVVSAPHSPSQDELTFTCTSINGYPRPNVYWINKTDNSLLDQALQNDTVSLNMRGLYDVVSVLRIARTPSVNIGCCIENVLLGGGGSGGGGSEPKSSDKTHTCPPCPAPEAEGAPSVFLFPPKPKDTLMISRTPEVTCVVVDVSHEDPEVKFNWYVDGVEVHNAKTKPREEQYNSTYRVVSVLTVLHQDWLNGKEYKCKVSNKALPAPIEKTISKAKGQPREPQVYTLPPSREEMTKNQVSLTCLVKGFYPSDIAVEWESNGQPENNYKTTPPVLDSDGSFFLYSKLTVDKSRWQQGNVFSCSVMHEALHNHYTQKSLSLSPG
B8: ICOSL ECD Truncation #6 with N52H/N57Y/Q100R/C198R, Fc fusion (Fc fusion)
chain: DTQEKEVRAMVGSDVELSCACPEGSRFDLNDVYVYWQTSESKTVVTYHIPQHSSLEYVDSRYRNRALMSPAGMLRGDFSLRLFNVTPQDEQKFHCLVLSRSLGFQEVLSVEVTLHVAANFSVPVVSAPHSPSQDELTFTCTSINGYPRPNVYWINKTDNSLLDQALQNDTVFLNMRGLYDVVSVLRIARTPSVNIGCRIENVLLGGGGSGGGGSEPKSSDKTHTCPPCPAPEAEGAPSVFLFPPKPKDTLMISRTPEVTCVVVDVSHEDPEVKFNWYVDGVEVHNAKTKPREEQYNSTYRVVSVLTVLHQDWLNGKEYKCKVSNKALPAPIEKTISKAKGQPREPQVYTLPPSREEMTKNQVSLTCLVKGFYPSDIAVEWESNGQPENNYKTTPPVLDSDGSFFLYSKLTVDKSRWQQGNVFSCSVMHEALHNHYTQKSLSLSPG
notes: as for B5
B9: ICOSL ECD Truncation #4 with N52H/N57Y/Q100R/F172S and E200G, Fc fusion (Fc fusion)
chain: DTQEKEVRAMVGSDVELSCACPEGSRFDLNDVYVYWQTSESKTVVTYHIPQHSSLEYVDSRYRNRALMSPAGMLRGDFSLRLFNVTPQDEQKFHCLVLSRSLGFQEVLSVEVTLHVAANFSVPVVSAPHSPSQDELTFTCTSINGYPRPNVYWINKTDNSLLDQALQNDTVSLNMRGLYDVVSVLRIARTPSVNIGCCIGNVLLQQNGGGGSGGGGSEPKSSDKTHTCPPCPAPEAEGAPSVFLFPPKPKDTLMISRTPEVTCVVVDVSHEDPEVKFNWYVDGVEVHNAKTKPREEQYNSTYRVVSVLTVLHQDWLNGKEYKCKVSNKALPAPIEKTISKAKGQPREPQVYTLPPSREEMTKNQVSLTCLVKGFYPSDIAVEWESNGQPENNYKTTPPVLDSDGSFFLYSKLTVDKSRWQQGNVFSCSVMHEALHNHYTQKSLSLSPG
B10: ICOSL ECD Truncation #8 with N207G/L208G and N52H/N57Y/Q100R/F172S, Fc fusion (Fc fusion)
chain: DTQEKEVRAMVGSDVELSCACPEGSRFDLNDVYVYWQTSESKTVVTYHIPQHSSLEYVDSRYRNRALMSPAGMLRGDFSLRLFNVTPQDEQKFHCLVLSRSLGFQEVLSVEVTLHVAANFSVPVVSAPHSPSQDELTFTCTSINGYPRPNVYWINKTDNSLLDQALQNDTVSLNMRGLYDVVSVLRIARTPSVNIGCCIENVLLQQGGTGGGGSGGGGSEPKSSDKTHTCPPCPAPEAEGAPSVFLFPPKPKDTLMISRTPEVTCVVVDVSHEDPEVKFNWYVDGVEVHNAKTKPREEQYNSTYRVVSVLTVLHQDWLNGKEYKCKVSNKALPAPIEKTISKAKGQPREPQVYTLPPSREEMTKNQVSLTCLVKGFYPSDIAVEWESNGQPENNYKTTPPVLDSDGSFFLYSKLTVDKSRWQQGNVFSCSVMHEALHNHYTQKSLSLSPG
B11: variant ICOSL IgV-Fc fusion N52H/N57Y/Q100R (Fc fusion, not shown: a dimerising Fc or GST)
chain: DTQEKEVRAMVGSDVELSCACPEGSRFDLNDVYVYWQTSESKTVVTYHIPQHSSLEYVDSRYRNRALMSPAGMLRGDFSLRLFNVTPQDEQKFHCLVLSRSLGFQEVLSVEVTLHVAANFSV

How the values were obtained:
[1] = molecular target: T3, human CTLA-4 (human, UniProt P16410 36-223); assay: flow cytometry, transfected cells; protein from CHO
T3 construct: whole, on cells

[2] = molecular target: T1, human ICOS; assay: as above
[3] = molecular target: T4, human CD28 (human, UniProt P10747 19-220); assay: as above
T4 construct: whole, on cells

[4] = molecular target: T5, human CTLA-4, full-length, expressed on transfected Expi293 cells (human, UniProt P16410 36-223); assay: flow cytometry, 100 nM, Expi293 cells with human CTLA-4
T5 construct: whole, on cells

[5] = molecular target: T2, human ICOS, full-length, expressed on …; assay: flow cytometry, 100 nM, Expi293 cells with human ICOS
[6] = molecular target: T6, human CD28, full-length, expressed on transfected Expi293 cells (human, UniProt P10747 19-220); assay: flow cytometry, 100 nM, Expi293 cells with human CD28
T6 construct: whole, on cells

T5 sequence (P16410 36-223): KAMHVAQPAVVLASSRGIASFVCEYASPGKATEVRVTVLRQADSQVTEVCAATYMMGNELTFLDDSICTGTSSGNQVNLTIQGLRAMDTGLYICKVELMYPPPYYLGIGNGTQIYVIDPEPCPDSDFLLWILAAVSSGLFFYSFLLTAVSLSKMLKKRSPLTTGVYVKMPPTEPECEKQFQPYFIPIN
T3 sequence (P16410 36-223): as above

| Binder | MFI [1] | MFI ratio to WT [1] | MFI [2] | MFI ratio to WT [2] | MFI [3] | MFI ratio to WT [3] | MFI [4] | MFI ratio to WT (ΔWT) [4] | MFI [5] | MFI ratio to WT (ΔWT) [5] | MFI [6] | MFI ratio to WT (ΔWT) [6] |
| --- | --- | --- | --- | --- | --- | --- | --- | --- | --- | --- | --- | --- |
| B1 | 322000 MFI | 42.4 fold | 143000 MFI | 1.4 fold | 75300 MFI | 43.6 fold | – | – | – | – | – | – |
| B2 | – | – | – | – | – | – | 606000 MFI | 1.83 fold | 238000 MFI | 1.12 fold | 138000 MFI | 6.2 fold |
| B3 | – | – | – | – | – | – | 11500 MFI | 0.03 fold | 29200 MFI | 0.14 fold | 6200 MFI | 0.3 fold |
| B4 | – | – | – | – | – | – | 69100 MFI | 0.21 fold | 205000 MFI | 0.97 fold | 15200 MFI | 0.7 fold |
| B5 | 83700 MFI | 11 fold | 54600 MFI | 0.5 fold | 38900 MFI | 22.5 fold | – | – | – | – | – | – |
| B6 | 207000 MFI | 27.3 fold | 106000 MFI | 1.1 fold | 88300 MFI | 51.1 fold | – | – | – | – | – | – |
| B7 | 240000 MFI | 31.6 fold | 90100 MFI | 0.9 fold | 91300 MFI | 52.8 fold | – | – | – | – | – | – |
| B8 | 236000 MFI | 31.1 fold | 91400 MFI | 0.9 fold | 84600 MFI | 49 fold | – | – | – | – | – | – |
| B9 | 320000 MFI | 42.3 fold | 108000 MFI | 1.1 fold | 80600 MFI | 46.6 fold | – | – | – | – | – | – |
| B10 | 308000 MFI | 40.7 fold | 133000 MFI | 1.3 fold | 108000 MFI | 62.4 fold | – | – | – | – | – | – |
| B11 | – | – | – | – | – | – | 817000 MFI | 2.47 fold | 200000 MFI | 0.94 fold | 142000 MFI | 6.4 fold |
